Test [1] addresses GPCMV gB (glycoprotein B of guinea pig CMV strain V545/82) (guinea pig cytomegalovirus). As to the kind of experiment: cell-based or functional assay.
The target of test [2] is T1, CMV gp116 epitope AD2 site peptide SHRANETIYNTTLKYGDTTGTNTTK (CMV (human cytomegalovirus), not fully specified).
T1 construct: Synthetic polypeptide corresponding to the AD2 site of gp116 (glycoprotein B); A biotinylated form was used to select B cells; also called CMV gp116 AD2 peptide
T1 peptide: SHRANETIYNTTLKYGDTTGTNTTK
The test is described as follows: kinetic affinity measurement, method not stated; antigen taken as CMV gp116 AD2 peptide.

Test [3] deals with T1, CMV gp116 epitope AD2 site peptide …. The test is described as follows: kinetic affinity measurement, method not stated; antigen taken as AD2 peptide; same value as r13, table re-sorted by koff.
Test [4] shares this target. As to the kind of experiment: kinetic affinity measurement, method not stated; antigen taken as AD2 peptide; same value as r8, table re-sorted by koff.
For test [5] the target is unchanged. The test is described as follows: kinetic affinity measurement, method not stated; antigen taken as AD2 peptide; same value as r9, table re-sorted by koff.
For test [6] the target is unchanged. The test is described as follows: kinetic affinity measurement, method not stated; antigen taken as AD2 peptide; same value as r12, table re-sorted by koff.

B1: 2N9 human anti-CMV antibody (antibody, V domains shown)
VH: QVQLVESGGGVVQPGRSLRLSCAASGFTFSSNGIHWVRQAPGKGLDWVAVISSDANDKQYADSVKGRFTISRDNSKNMVYLQMNSLRVEDTAVYFCARDGTCSGGNCYSGLIDYWGRGILVTVSS
VL: EIVLTQSPATLSLSPGERATLSCRASQSVGGYLAWYQQKPGQAPRLLIYDASIRATGIPARFSGSGSGTDFTLTISSLEPEDFAVYYCHQRSNWPPLTFGGGTKVDIKR
notes: Recombinant human IgG, gamma heavy and kappa light chain; (MDMR); If the listing entry has two more residues, the range shifts by 2; also called TCN-202; mAb C-2N9
With B1, the “neutralization of GPCMV V545/82 entry into JH4 cells; highest concentration tested without effect” value in test [1] was above 300 ng/mL. In test [2], this molecule came in with a Kd of 11.6 nM, a koff of 0.03 s⁻¹ and a kon of 2.6e+06 M⁻¹ s⁻¹. Besides, in test [3], the Kd came to 11.6 nM, the koff was 0.03 s⁻¹ and the kon worked out at 2.6e+06 M⁻¹ s⁻¹.

B2: 2F10 human anti-CMV antibody (antibody, V domains shown)
VH: QVHLVESGGGVVQPGRALRLSCAATGFTFSNHGIHWVRQAPGKGLEWLAVISSDGDDDRYADSVKGRFSVSRDNSKNTVHLQMNGLRPDDTAIYFCARDGRCGEPKCYSGLPDYWGRGTLVTVSS
VL: EIVLTQSPATLSLSPGDRATLSCRASQSVGGYLAWYQQKPGQAPRLLLYDASNRATGIPARFSGSGSGTDFTLTISSLEPEDFALYYCLQRNTWPPLTFGGGTKVEIKR
notes: Recombinant human IgG, gamma heavy and kappa light chain, made by transient transfection of 293 cells; also called mAb A-2F10
Regarding B2, the “neutralization of GPCMV V545/82 entry into JH4 cells; highest concentration tested without effect” value in test [1] was above 300 ng/mL. Moreover, in test [2], binding was put at a Kd of 1.98 nM, the koff is 0.00111 s⁻¹ and the kon came out at 562000 M⁻¹ s⁻¹. In test [4], this molecule had a Kd of 1.98 nM, a koff of 0.00111 s⁻¹ and a kon of 562000 M⁻¹ s⁻¹.

B3: 5P9 human anti-CMV antibody (antibody, V domains shown)
VH: QVQLVESGGGVIQPGRSLRLSCVASKFIFSNHGIHWVRQAPGKGLEWVAVISKDGTNAHYADSVRGRFSISRDNSKDTVFLEMRSLRPEDTAVYYCAREGRCIEEKCYSGQIDYWGQGSLVTVSS
VL: EILLTQSPATLSLSPGERATLSCRASQSVGRYMAWYQQRPGQAPRLLIYDASIRATGIPARFSGSGSGTDFTLTISSLQTEDFAIYYCQQRSSWPPLTFGGGTKVEIKR
notes: Recombinant human IgG, gamma heavy and kappa light chain; also called mAb E-5P9
B3: the “neutralization of GPCMV V545/82 entry into JH4 cells; highest concentration tested without effect” value in test [1] was above 300 ng/mL. In test [2], this molecule gave a Kd of 4.9 nM, a koff of 0.00121 s⁻¹ and a kon of 245000 M⁻¹ s⁻¹. In test [5], the affinity, expressed as Kd, was 4.9 nM; the koff came to 0.00121 s⁻¹; the kon is 245000 M⁻¹ s⁻¹.

B4: 4P12 human anti-CMV antibody (antibody, V domains shown)
VH: QVQLVESGGGVIQPGRSLRLSCVASKFIFSNHGIHWVRQAPGKGLEWVAVISKDGTNAHYADSVRGRFSISRDNSKDTVFLEMRSLRPEDTAVYYCAREGRCIEENCYSGQIDYWGQGSLVTVSS
VL: EILLTQSPATLSLSPGERATLSCRASQSVGRYMAWYQQRPGQAPRLLIYDASIRATGIPARFSGSGSGTDFTLTISSLQPEDFAIYYCQQRSSWPPLTFGGGTKVEIKR
notes: Recombinant human IgG, gamma heavy and kappa light chain; also called mAb D-4P12
Regarding B4, in test [1], the “neutralization of GPCMV V545/82 entry into JH4 cells; highest concentration tested without effect” value is above 300 ng/mL. Besides, in test [2], the dissociation constant (Kd) was determined as 10.9 nM, the koff was 0.0019 s⁻¹ and the kon is 175000 M⁻¹ s⁻¹. Moreover, in test [6], the Kd was determined as 10.9 nM, the koff came out at 0.0019 s⁻¹ and the kon came to 175000 M⁻¹ s⁻¹.

The values are drawn from patent publication US20150152166A1 (THERACLONE SCIENCES, published 2015).
